T1: PSMGFR C-10 peptide
T1 peptide: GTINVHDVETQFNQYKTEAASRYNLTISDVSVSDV

T2: PSMGFR peptide
T2 construct: also called PSMGFR 45mer
T2 peptide: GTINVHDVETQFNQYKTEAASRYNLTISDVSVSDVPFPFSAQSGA

T3: PSMGFR N-30 peptide
T3 peptide: SVSDVPFPFSAQSGA

T4: PSMGFR N-19 C-5 peptide
T4 peptide: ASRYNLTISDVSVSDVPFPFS

T5: PSMGFR N-10 peptide
T5 peptide: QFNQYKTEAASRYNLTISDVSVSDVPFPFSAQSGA


Columns and labels:
[1] = target: MUC1* on cancer cells and tumour sections (UniProt P15941); assay: IHC with C2 on untreated T47D-wt breast tumors excised from mice
[2] = target: T1, PSMGFR C-10 peptide; assay: ELISA on PSMGFR C-10 peptide; Table 4 grade
[3] = target: MUC1* on cancer cells and tumour sections (UniProt P15941); assay: IHC with C2 on untreated HPAFII-wt pancreatic tumors excised from mice
[4] = target: MUC1* on cancer cells and tumour sections (UniProt P15941); assay: IHC with C2 on untreated H1975-wt lung tumors excised from mice
[5] = target: T2, PSMGFR peptide; assay: peptide binding assay (FIGS. 1A, 1B)
[6] = target: T3, PSMGFR N-30 peptide; assay: peptide binding assay (FIGS. 2A, 2B)
[7] = target: T4, PSMGFR N-19 C-5 peptide; assay: peptide binding assay (FIGS. 2A, 2B)
[8] = target: T5, PSMGFR N-10 peptide; assay: ELISA on PSMGFR N-10 peptide; Table 4 column 'Binds N-10', grade
[9] = test system: T47D-MUC1*; assay: xCELLigence impedance cytotoxicity, T47D-MUC1*; type: cell-based, human; details: xCELLigence; 40-120 hours incubation; read-out: IC50, T47D-MUC1*
Method: (§1) An xCELLigence RTCA MP Instrument (Agilent) was used to assess real-time killing of target cancer cells). In the xCELLigence system, target cancer cells, which are adherent, are plated onto electrode array 96-well plates. Adherent cells insulate the electrode and increase the impedance. The number of adherent cancer cells is directly proportional to impedance. […] Therefore, increasing impedance reflects the growth of the cancer cells and decreasing impedance reflects the killing of the cancer cells.
(§2) Target Cancer cells (Table 9) were seeded onto a multi-electrode well plate at a density of 5000 cells/well (100 μL of a 50,000 cells/mL stock) and incubated for 24 hr in a 37° C./5% CO2 incubator. ADCs were prepared as a 2× solution in corresponding growth media and 100 μL of each concentration was added to target cells. As a positive control (100% cell killing) cells were treated with either 1% triton or 1 μM Taxol instead of ADC. After 40-120 hours incubation in a 37° C./5% CO2 incubator cell killing was assessed. In this assay, impedance is measured in real-time. When the adherent cancer cells are killed and come off the electrode surface, impedance (insulation) decreases.

[10] = test system: T47D; assay: PrestoBlue live/dead cell assay, T47D; type: cell-based, human; details: Presto Blue; 72-120 hour incubation
Method: (§3) Another method of measuring the killing activity of ADCs against target cancer cells is to use the PrestoBlue live/dead cell assay (ThermoFisher). Target cancer cells were seeded in a black-walled, clear-bottom 96-well tissue culture plate at a density of 5000 cells/well (100 μL of a 50,000 cells/mL stock) and incubated overnight in a 37° C./5% CO2 incubator. ADCs were prepared as a 2× solution in corresponding cancer cell growth media and 100 μL of each concentration was added to target cancer cells. As a positive control (100% killing) cancer cells were treated with 1 μM Taxol instead of ADC. After 72 hour-120 hour incubation in a 37° C./5% CO2 incubator, cell viability was measure by fluorescence using the PrestoBlue HS assay (ThermoFisher). Briefly, after the incubation period, 20 μL of PrestoBlue HS solution was added. Fluorescence (Ex 560 nm/Em 590 nm) was recorded after 30-90 min. incubation using a Tecan plate reader. Percentage viability was determined by PrestoBlue HS staining and normalized to 1 μM taxol treated cells.
(§4) The normalized fluorescence values were imported into the graph program, Sigma Plot, data plotted as ADC concentration versus normalized fluorescence signal and curve fitted using a four-parameter Hill equation: f=y0+a*x^b/(c^b+x^b) to calculate IC50 values. IC50 values for the ADCs were generally consistent between the xCELLigence and Presto Blue assays.

[11] = test system: T47D-MUC1*; assay: PrestoBlue live/dead cell assay, T47D-MUC1*; type: cell-based, human; details: Presto Blue; 72-120 hour incubation
Method: as §3, §4

[12] = test system: NCI-H1975; assay: xCELLigence impedance cytotoxicity, NCI-H1975; type: cell-based, human; details: xCELLigence; 40-120 hours incubation; read-out: IC50, NCI-H1975
Method: as §1, §2

[13] = test system: H1975; assay: PrestoBlue live/dead cell assay, H1975; type: cell-based, human; details: Presto Blue; 72-120 hour incubation
Method: as §3, §4

[14] = test system: T47D-MUC1* xenograft tumors; assay: T47D-MUC1* breast cancer xenograft; type: in vivo, NOD/SCID mice; details: intraperitoneal; MMAE ADCs 5-10 mg/kg Days 7, 14, 20; deruxtecan/exatecan ADCs 20 mg/kg weekly x7
Method: (§5) For breast cancer xenografts, female NOD/SCID mice (weight 18-22 g, 6-8 weeks old, Charles River Laboratories) previously implanted with a 90-day release estrogen pellet (Innovative Research Laboratories) were subcutaneously injected under isoflurane anesthesia (ISOTHESIA, 250 ml (HENRY SCHEIN, NDC: 11695-6776-2) with one million luciferase-positive T47D breast cancer cells expressing low levels of MUC1*(ATCC) or one million luciferase-positive T47D-MUC1* cells overproducing MUC1* using a BD 26G Insulin Syringes with Detachable Needle (Fisher cat: 329652) or BD 28G Lo-Dose U-100 Insulin Syringes (Fisher cat: 329461).
(§6) Tumor volume was measured from bioluminescence images acquired with a Xenogen IVIS-Spectrum system (Perkin Elmer). Mice were injected […] into the scruff of the neck with 150 ul, 30 mg/mL, D-Luciferin (XenoLight™ D-Luciferin Potassium Salt; PerkinElmer P/N 122799), placed under isoflurane anesthesia, and photographed within 10 minutes of the Leciferin injection. Data was expressed graphically as Radiance (photons/sec) as a function of days post-tumor implantation.
(§7) Tumor mass was determined from tumors excised from mice receiving T47D cells on Day 95 and mice receiving T47D-MUC1* cells on Day 96. […]

[15] = test system: HPAFII-MUC1*; assay: PrestoBlue live/dead cell assay, HPAFII-MUC1*; type: cell-based, human; details: Presto Blue; 72-120 hour incubation
Method: as §3, §4

[16] = test system: T47D xenograft tumors; assay: T47D breast cancer xenograft; type: in vivo, NOD/SCID mice; details: intraperitoneal; MMAE ADCs 5-10 mg/kg Days 7, 14, 20; deruxtecan/exatecan ADCs 20 mg/kg weekly x7
Method: as §5, §6, §7

[17] = test system: HPAFII; assay: PrestoBlue live/dead cell assay, HPAFII; type: cell-based, human; details: Presto Blue; 72-120 hour incubation
Method: as §3, §4

[18] = test system: T47D; assay: xCELLigence impedance cytotoxicity, T47D; type: cell-based, human; details: xCELLigence; 40-120 hours incubation; read-out: IC50, T47D
Method: as §1, §2

Molecule | H-score [1] | binding result [2] | H-score [3] | H-score [4] | binding result [5] | binding result [6] | binding result [7] | binding result [8] | IC50 [9] [nM] | IC50 [10] [nM] | IC50 [11] [nM] | IC50 [12] [nM] | IC50 [13] [nM] | growth of T47D-MUC1* xenograft tumors [14] | IC50 [15] [nM] | growth of T47D xenograft tumors [16] | IC50 [17] [nM] | IC50 [18] [nM]
anti-MUC1* antibody C2 (antibody, Monoclonal antibody raised against the PSMGFR peptide; also called mAb C2; IgG1 C2 antibody) VH: EVQLEESGGGLVKPGGSLKLSCAASGFTFSGYAMSWVRQTPEKRLEWVATISSGGTYIYYPDSVKGRFTISRDNAKNTLYLQMSSLRSEDTAMYYCARLGGDNYYEYFDVWGAGTTVTVSSAKTTPPSVYPLAPGSAAQTNSMVTLGCLVKGYFPEPVTVTWNSGSLSSGVHTFPAVLQSDLYTLSSSVTVPSSTWPSETVTCNVAHPASSTKVDKKIVPRDCGCKPCICTVPEVSSVFIFPPKPKDVLTITLTPKVTCVVVDISKDDPEVQFSWFVDDVEVHTAQTQPREEQFNSTFRSVSELPIMHQDWLNGKEFKCRVNSAAFPAPIEKTISKTKGRPKAPQVYTIPPPKEQMAKDKVSLTCMITDFFPEDITVEWQWNGQPAENYKNTQPIMDTDGSYFVYSKLNVQKSNWEAGNTFTCSVLHEGLHNHHTEKSLSHSPGK VL: DIVITQSTASLGVSLGQRATISCRASKSVSTSGYSYMHWYQQRPGQPPKLLIYLASNLESGVPARFSGSGSGTDFTLNIHPVEEEDAATYYCQHSRELPFTFGGGTKLEIKRADAAPTVSIFPPSSEQLTSGGASVVCFLNNFYPKDINVKWKIDGSERQNGVLNSWTDQDSKDSTYSMSSTLTLTKDEYERHNSYTCEATHKTSTSPIVKSFNRNEC | 10 | no binding | 220 | 40 |  |  |  |  |  |  |  |  |  |  |  |  |  | 
anti-MUC1* antibody 3C2B1 (antibody, V domains shown, Humanised form is m27; also called 32CB1) VH: EVMLVESGGGLVKPGGSLKLSCAASGITFSTYTMSWVRQTPEKRLEWVATISTGGDKTYYSDSVKGRFTISRDNAKNNLYLQMSSLRSEDTALYYCARGTTAMYYYAMDYWGQGTSVTVSS VL: DIVLTQSPASLAVSLGQRATISCRASKSISTSDYNYIHWYQQKPGQPPKLLIYLASNLESGVPARFSGSGSGTDFTLNIHPVEEEDAATYYCQHSRELPLTFGAGTKLELK |  | no binding |  |  | binds | binds | binds | binds |  |  |  |  |  |  |  |  |  | 
C2 MC-VC-PAB MMAE (conjugate, listed as Mus sp., MC-VC-PAB-MMAE, ADC: anti-MUC1* antibody C2 conjugated via MC-VC-PAB linker to MMAE) heavy: EVQLEESGGGLVKPGGSLKLSCAASGFTFSGYAMSWVRQTPEKRLEWVATISSGGTYIYYPDSVKGRFTISRDNAKNTLYLQMSSLRSEDTAMYYCARLGGDNYYEYFDVWGAGTTVTVSSAKTTPPSVYAKTTPPSVYPLAPGSAAQTNSMVTLGCLVKGYFPEPVTVTWNSGSLSSGVHTFPAVLQSDLYTLSSSVTVPSSTWPSETVTCNVAHPASSTKVDKKIVPRDCGCKPCICTVPEVSSVFIFPPKPKDVLTITLTPKVTCVVVDISKDDPEVQFSWFVDDVEVHTAQTQPREEQFNSTFRSVSELPIMHQDWLNGKEFKCRVNSAAFPAPIEKTISKTKGRPKAPQVYTIPPPKEQMAKDKVSLTCMITDFFPEDITVEWQWNGQPAENYKNTQPIMDTDGSYFVYSKLNVQKSNWEAGNTFTCSVLHEGLHNHHTEKSLSHSPGK light: DIVITQSTASLGVSLGQRATISCRASKSVSTSGYSYMHWYQQRPGQPPKLLIYLASNLESGVPARFSGSGSGTDFTLNIHPVEEEDAATYYCQHSRELPFTFGGGTKLEIKRADAAPTVSADAAPTVSIFPPSSEQLTSGGASVVCFLNNFYPKDINVKWKIDGSERQNGVLNSWTDQDSKDSTYSMSSTLTLTKDEYERHNSYTCEATHKTSTSPIVKSFNRNEC |  |  |  |  |  |  |  |  | 1.8 | 187 | 2.6 | 23 | 89 | inhibit the growth | 63 | inhibit the growth | 112 | 156
